# Measurements taken from patent US20210155689A1 (SHANGHAI PHARMAEXPLORER, published 2021).
# Positions count from the first letter of the chain named.
# B1: 556F6B8 mouse-human chimeric antibody (antibody, V domains shown)
# VH: RVQLKQSGPGLVQPSQSLSITCTVSGFSLIKYGVHWVRQSPGEGLEWLGVIWRGGITDYNAAFMSRLSITKDNSKSQVFFKMNSLQADDTAIYYCAKWDGPLAMDYWGQGTSVTVSS
# VL: DIVMTQSHKFLSTSVGDRVSITCKASQDVGTTVAWYQQKPGQSPKLLIYWASTRHTGVPDRFTGSGSGTDFTLTISNVQSEDLADYFCQQYSSYPYTFGGGTKLEIK
# notes: also called mAb123-556F6B8; 556F8B8
# B2: 105F1E10 mouse-human chimeric antibody (antibody, V domains shown)
# VH: EVQLQQSGPELVKPGASVKMSCRASGYTFTDFKMHWMKQSHGKSLEWIGYIAPNNGGTAYNQKFRGKATLTVNESSNTAYMELRSLTSEDSAVYYCVDWDDVDYWGQGTTLTVSS
# VL: DIKMTQSPSSMYASLGERVTITCKASQDINSYLSWFQQKSGKSPKTLIYRANRLVDGVPSRFSGSGSGQDYSLTISSLEYEDMGIYYCLQYVEFPLTFGAGTKLELK
# notes: also called mAb009-105F1E10
# B3: 405B8H3 mouse-human chimeric antibody (antibody, V domains shown)
# VH: QVQLQQSGAELVRPGASVTLSCKASGYTFTDYEMHWVKQTPVHGLEWIGATDPETGNSAYNQKFKGKAIMTADKSSSTAYMELRSLTSEDSAVYYCISTGWNDWGQGTSLTVSS
# VL: B2 VL with S40P, N52D, V55L, E81G, V92D, L96Y, A100G, L106I
# notes: also called mAb103-405B8H3
# B4: 409B11E12 mouse-human chimeric antibody (antibody, V domains shown)
# VH: B3 VH with P41T, G56S, N57Y, M70L, S98A
# VL: B2 VL with I2L, S40P, V55L, V92D, L96Y, A100G, L106I
# notes: also called mAb104-409B11E12
# B5: 409D4E10 mouse-human chimeric antibody (antibody, V domains shown)
# VH: B3 VH with Y27N, G56D, S58T, M70L, A72T, S98T, T99S
# VL: B2 VL with S40P, V55L, V92N, L96Y, A100G, L106I
# notes: also called mAb112-409D4E10
# B6: 405B8H3 (mouse antibody purified from hybridoma) (antibody, V domains shown)
# VH: B3 VH
# VL: B2 VL with S40P, N52D, V55L, E81G, V92D, L96Y, A100G, L106I
# notes: also called mAb103-405B8H3; 405B81-13
# B7: 409B11E12 (mouse antibody purified from hybridoma) (antibody, V domains shown)
# VH: B3 VH with P41T, G56S, N57Y, M70L, S98A
# VL: B2 VL with I2L, S40P, V55L, V92D, L96Y, A100G, L106I
# notes: also called mAb104-409B11E12
# B8: 409D4E10 (mouse antibody purified from hybridoma) (antibody, V domains shown)
# VH: B3 VH with Y27N, G56D, S58T, M70L, A72T, S98T, T99S
# VL: B2 VL with S40P, V55L, V92N, L96Y, A100G, L106I
# notes: also called mAb112-409D4E10
# B9: 556F6B8 (mouse antibody purified from hybridoma) (antibody, V domains shown)
# VH: B1 VH
# VL: B1 VL
# notes: also called mAb123-556F6B8
# B10: 105F1E10 (mouse antibody purified from hybridoma) (antibody, V domains shown)
# VH: B2 VH
# VL: B2 VL
# notes: also called mAb009-105F1E10
# B11: 105F1E10 (LAG-3 mouse-human chimeric antibody) (antibody, V domains shown)
# VH: B2 VH
# VL: B2 VL
# B12: 405B8H3 (LAG-3 mouse-human chimeric antibody) (antibody, V domains shown)
# VH: B3 VH
# VL: B2 VL with S40P, N52D, V55L, E81G, V92D, L96Y, A100G, L106I
# notes: also called mouse-human chimeric antibody 405B8H3
# B13: 409B11E12 (LAG-3 mouse-human chimeric antibody) (antibody, V domains shown)
# VH: B3 VH with P41T, G56S, N57Y, M70L, S98A
# VL: B2 VL with I2L, S40P, V55L, V92D, L96Y, A100G, L106I
# B14: 409D4E10 (LAG-3 mouse-human chimeric antibody) (antibody, V domains shown)
# VH: B3 VH with Y27N, G56D, S58T, M70L, A72T, S98T, T99S
# VL: B2 VL with S40P, V55L, V92N, L96Y, A100G, L106I
# B15: 556F6B8 (LAG-3 mouse-human chimeric antibody) (antibody, V domains shown)
# VH: B1 VH
# VL: B1 VL
# notes: also called 556F8B8
# Target: T1, human LAG-3 on cells (HEK293-hLAG-3 stable cell line) (human, UniProt P18627 23-525)
# T1 sequence: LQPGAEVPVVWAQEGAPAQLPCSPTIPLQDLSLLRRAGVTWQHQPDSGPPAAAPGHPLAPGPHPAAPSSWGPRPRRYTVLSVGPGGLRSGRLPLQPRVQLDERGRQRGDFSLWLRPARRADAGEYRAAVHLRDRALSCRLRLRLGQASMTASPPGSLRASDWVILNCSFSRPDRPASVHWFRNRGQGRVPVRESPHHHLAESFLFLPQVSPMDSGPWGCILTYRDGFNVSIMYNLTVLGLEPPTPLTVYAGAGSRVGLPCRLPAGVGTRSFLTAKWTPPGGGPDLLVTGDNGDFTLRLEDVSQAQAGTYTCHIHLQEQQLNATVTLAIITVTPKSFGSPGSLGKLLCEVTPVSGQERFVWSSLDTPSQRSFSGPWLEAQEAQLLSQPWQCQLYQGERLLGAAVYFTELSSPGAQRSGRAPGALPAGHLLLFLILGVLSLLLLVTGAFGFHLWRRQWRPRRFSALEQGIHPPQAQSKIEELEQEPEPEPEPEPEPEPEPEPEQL
# Experiment: FACS, HEK293-hLAG-3, antibody 40.000 nM
# Description: (§1) The pIRES plasmid with the monkey-derived full-length gene was transfected into the HEK293 cell line to construct a HEK293 stable cell line containing monkey LAG-3 (herein referred to as HEK293-cLAG-3 stable cell line). The HEK293-hLAG-3 stable cell line and HEK293-cLAG-3 stable cell line were expanded in a T-75 cell culture flask to a 90% confluence. The medium was aspirated, and the cells were washed with HBSS (Hanks' Balanced Salt Solution) 1-2 times, then treated with a enzyme-free cell dissociation fluid (Versene solution: Life technology) and the cells were collected. The cells were washed with HBSS buffer for 1-2 times. After counted, the cells were diluted with HBSS to 1-2×10⁶ cells per ml, added with 1% goat serum blocking solution, incubated on ice for 20-30 minutes, and then washed with HBSS for 2 times by centrifugation. The collected cells were suspended in the FACS buffer (HBSS+1% BSA) to 2×10⁶ cells/ml, added as 100 microliters per well to a 96-well FACS reaction plate, added with 100 microliters per well of the antibody sample to be tested, incubated on ice for 1-2 hours. The plate was washed twice with the FACS buffer by centrifugation, added with 100 microliters of fluorescent (Alexa 488)-labeled secondary antibodies per well, and incubated on ice for 0.5-1.0 hours. The plate was washed 2-3 times with FACS buffer by centrifugation, added with 100 μl fixative solution (4% Paraformaldehyde) per well to suspend the cells. 5-10 minutes later, it was washed 1-2 times with FACS buffer by centrifugation. The cells were suspended with 100 microliters of FACS buffer, FACS (FACSCalibur, BD) was used for detection and the results were analyzed.
row,Binder,Mean fluorescence intensity
1,B1,123
2,B2,146
3,B3,158
4,B4,150
5,B5,140

# Target: T2, monkey LAG-3 (full length, on the cell surface) (monkey, UniProt P18627 24-525 (human entry))
# T2 construct: also called HEK293-cLAG-3; monkey LAG-3 protein on the cell surface
# T2 chain: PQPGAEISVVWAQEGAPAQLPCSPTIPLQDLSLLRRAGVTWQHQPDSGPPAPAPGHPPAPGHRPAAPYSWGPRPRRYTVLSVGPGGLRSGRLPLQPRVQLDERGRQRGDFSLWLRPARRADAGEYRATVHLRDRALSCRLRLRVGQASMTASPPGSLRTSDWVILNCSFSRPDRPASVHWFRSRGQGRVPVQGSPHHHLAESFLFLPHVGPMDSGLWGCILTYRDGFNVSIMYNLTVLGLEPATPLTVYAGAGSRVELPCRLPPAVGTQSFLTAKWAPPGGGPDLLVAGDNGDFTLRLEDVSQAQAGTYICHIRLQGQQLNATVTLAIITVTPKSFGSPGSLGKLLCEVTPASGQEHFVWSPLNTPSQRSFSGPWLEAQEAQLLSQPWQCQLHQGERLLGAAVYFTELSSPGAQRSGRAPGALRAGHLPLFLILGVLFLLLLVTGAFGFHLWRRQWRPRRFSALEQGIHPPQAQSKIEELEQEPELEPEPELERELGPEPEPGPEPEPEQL
# Experiment: FACS, HEK293-cLAG-3; 200.000 nM
# Description: as §1
row,Binder,Mean fluorescence intensity [MFI]
1,B6,139
2,B7,134
3,B8,153
4,B9,52.2
5,B10,120

# Target: T3, human LAG-3 (full length, on the cell surface) (human, UniProt P18627 23-525)
# T3 construct: Full-length human LAG-3 expressed on cells; also called HEK293-hLAG-3; HEK293 cells transfected with LAG-3 gene
# T3 sequence: T1 sequence
# Experiment: FACS, HEK293-hLAG-3; 0.013 nM
# Description: as §1
row,Binder,Mean fluorescence intensity [MFI]
1,B6,5
2,B7,2.9
3,B8,3.3
4,B9,3.6
5,B10,5

# Target: T1, human LAG-3 on cells (HEK293-hLAG-3 …)
# Experiment: FACS, HEK293-hLAG-3, antibody 0.320 nM
# Description: as §1
row,Binder,Mean fluorescence intensity
1,B1,14.3
2,B2,10.7
3,B3,17.3
4,B4,16.8
5,B5,15.7

# Target: T4, hFc tagged monkey LAG-3 protein (cLAG-3-hFc protein) (monkey; human)
# T4 construct: Made in HEK293 cells; also called monkey LAG-3 extracellular domain protein; not shown: human IgG Fc fragment (hFc) of the pCpC vector
# T4 chain: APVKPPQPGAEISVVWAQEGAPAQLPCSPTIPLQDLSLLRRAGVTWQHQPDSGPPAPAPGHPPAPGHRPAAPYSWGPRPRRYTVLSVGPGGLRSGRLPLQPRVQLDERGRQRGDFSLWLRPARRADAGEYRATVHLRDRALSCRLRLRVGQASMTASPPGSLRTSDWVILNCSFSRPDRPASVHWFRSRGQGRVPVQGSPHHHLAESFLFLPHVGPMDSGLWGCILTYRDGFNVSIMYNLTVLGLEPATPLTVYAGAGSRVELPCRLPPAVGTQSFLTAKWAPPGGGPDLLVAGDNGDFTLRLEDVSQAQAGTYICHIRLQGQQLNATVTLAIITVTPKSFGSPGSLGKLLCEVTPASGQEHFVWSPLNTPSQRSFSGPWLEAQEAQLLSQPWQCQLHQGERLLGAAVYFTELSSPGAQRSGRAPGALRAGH
# Experiment: ELISA, cLAG-3-hFc coated; 66.6670 nM
# Method: The plate was sealed with plastic film and incubated overnight at 4° C. The plate was washed 2 times with the plate washing solution (PBS+0.01% Tween20) on the next day, and added with the blocking solution (PBS+0.01% Tween20+1% BSA) and blocked at room temperature for 1-2 hours. The blocking solution was poured out, and the plate was added with 50-100 μl of the antibody sample to be tested to each well, incubated at 37° C. for 1-2 hours, and washed 2-3 times with a plate washing solution (PBS+0.01% Tween20). HRP (horseradish peroxidase) labeled secondary antibody was added, and the plate was incubated at 37° C. for 1-2 hours, and washed 2-3 times with a plate washing solution (PBS+0.01% Tween20). 100 μl of TMB substrate was added to each well. After incubated at room temperature for 15-30 minutes, the plate was added with 100 μl of stop solution (1.0N HCl) to each well.
row,Binder,OD450 [OD450]
1,B11,3.59
2,B12,3.46
3,B13,3.44
4,B14,3.77
5,B15,3.72
